We go through five molecules from publication PMC5365662, “A Short Double-Stapled Peptide Inhibits Respiratory Syncytial Virus Entry and Spreading” (Antimicrobial Agents and Chemotherapy, 2017).

Bridge positions count the residues as written; N and C are the ends. Square brackets hold non-standard residues; d marks the D form. Peptide text beside a SMILES is read from it. R8 = C=CCCCCCC[C@@](C)(N)C(=O)O; S5 = C=CCCC[C@](C)(N)C(=O)O

Data set [1] can be described thus: circular dichroism. The conditions noted are these: 10 mM phosphate; pH 7.5; 25 °C; 50 uM. Background: CD spectra are sensitive to the conformation of chiral molecules.
The subject of data set [2] is rHRSV-mCherry in HEp-2 cells. Nature of the data set: rHRSV-mCherry inhibition assay. The data set is classed as cell-based, human respiratory syncytial virus. Conditions: Table 3 (Ala scan); HEp-2 cells, rHRSV-mCherry MOI 0.2, 2-fold serial dilutions (11 dilutions), duplicate; ± SD of fit. As for the experimental part:
To measure the inhibitory activity of the peptide, the mCherry red fluorescence was quantified 48 h postinfection (p.i.).
Viral replication was quantified by measuring the mCherry fluorescence at 48 h p.i. and normalized based on the fluorescence of infected and untreated cells. (B) Cytotoxicity assay. HEp-2 cells were incubated in the presence of serial dilutions of peptides, and cell survival was quantified using the CellTiter-Glo Luminescent cell viability assay 24 h after the addition of the peptides. The signal was normalized based on the luminescence obtained for untreated cells. Error bars are standard deviations from duplicates.
HEp-2 cells were seeded at 5 × 10^4 cells per well in a 96-well plate the day before the infection. Peptides were 2-fold serially diluted in dimethyl sulfoxide (DMSO) (11 dilutions) and then further diluted in EMEM without phenol red and preincubated for 15 to 20 min with rHRSV-mCherry ([24]) at a final dilution with an MOI of 0.2 ([24]). The cells were incubated with the virus-peptide mixtures for a period of 1.5 to 2 h. The medium was then replaced by EMEM without phenol red containing 2% fetal bovine serum and the same concentration of peptide as the one that was used during the infection step. Plates were incubated 48 h at 37°C, and the mCherry fluorescence was measured using a spectrofluorometer (Tecan infinite M200PRO) with excitation and emission wavelengths of 580 and 620 nm, respectively. Relative fluorescence was normalized by the fluorescence of nontreated infected cells. Noninfected HEp-2 cells were used as standards for fluorescence background levels. Each experiment was performed in duplicate and repeated at least twice. The resulting inhibition curves were fitted in Igor Pro as described above.

For `CC[C@H](C)[C@H](NC(=O)[C@H](Cc1ccccc1)NC(=O)[C@]1(C)CCCC=CCCC[C@](C)(NC(=O)[C@H](C)NC(=O)[C@H](CCCCN)NC(=O)[C@H](CCC(=O)O)NC(C)=O)C(=O)N[C@@H](CCC(N)=O)C(=O)N[C@@H](CO)C(=O)N[C@@H](CC(C)C)C(=O)N1)C(=O)N[C@@]1(C)CCCC=CCCC[C@@](C)(C(=O)N[C@@H](CC(C)C)C(=O)N[C@@H](CC(C)C)C(=O)N[C@@H](Cc2c[nH]cn2)C(=O)N[C@@H](CC(N)=O)C(=O)N[C@H](C(N)=O)C(C)C)NC(=O)[C@H](CC(=O)O)NC(=O)[C@H](CO)NC(=O)[C@H](CCCCN)NC1=O` [Peptide I499A] (Ac-EKA[S5]QSL[S5]FI[S5]KSD[S5]LLHNV-NH2; staple 4-8, 11-15), the helicity in data set [1] amounted to 24%. Further, a half-maximal effect in data set [2] (EC50) was put at 1.3 ± 0.89 µM. For the molecule `CC[C@H](C)[C@H](NC(=O)[C@H](CCCCN)NC(=O)[C@H](CCC(=O)O)NC(C)=O)C(=O)N[C@@]1(C)CCCC=CCCC[C@@](C)(C(=O)N[C@@H](Cc2ccccc2)C(=O)N[C@H](C(=O)N[C@@]2(C)CCCC=CCCC[C@@](C)(C(=O)N[C@@H](C)C(=O)N[C@@H](CC(C)C)C(=O)N[C@@H](Cc3c[nH]cn3)C(=O)N[C@@H](CC(N)=O)C(=O)N[C@H](C(N)=O)C(C)C)NC(=O)[C@H](CC(=O)O)NC(=O)[C@H](CO)NC(=O)[C@H](CCCCN)NC2=O)[C@@H](C)CC)NC(=O)[C@H](CC(C)C)NC(=O)[C@H](CO)NC(=O)[C@H](CCC(N)=O)NC1=O` [Peptide L512A] (Ac-EKI[S5]QSL[S5]FI[S5]KSD[S5]ALHNV-NH2; staple 4-8, 11-15), in data set [1], the helicity came out at 45%. For the same molecule, the midpoint of the response in data set [2], the EC50, lay at 0.88 ± 0.06 µM. For `CC[C@H](C)[C@H](NC(=O)[C@H](CCCCN)NC(=O)[C@H](CCC(=O)O)NC(C)=O)C(=O)N[C@@]1(C)CCCC=CCCC[C@@](C)(C(=O)N[C@@H](Cc2ccccc2)C(=O)N[C@H](C(=O)N[C@@]2(C)CCCC=CCCC[C@@](C)(C(=O)N[C@@H](CC(C)C)C(=O)N[C@@H](CC(C)C)C(=O)N[C@@H](Cc3c[nH]cn3)C(=O)N[C@@H](C)C(=O)N[C@H](C(N)=O)C(C)C)NC(=O)[C@H](CC(=O)O)NC(=O)[C@H](CO)NC(=O)[C@H](CCCCN)NC2=O)[C@@H](C)CC)NC(=O)[C@H](CC(C)C)NC(=O)[C@H](CO)NC(=O)[C@H](CCC(N)=O)NC1=O` [Peptide N515A] (Ac-EKI[S5]QSL[S5]FI[S5]KSD[S5]LLHAV-NH2; staple 4-8, 11-15), the helicity in data set [1] worked out at 59%. In addition, in data set [2], a half-maximal response (EC50) required 2.71 ± 2.93 µM. Turning to `CC[C@H](C)[C@H](NC(=O)[C@H](CCCCN)NC(=O)[C@H](CCC(=O)O)NC(C)=O)C(=O)N[C@@H](C)C(=O)N[C@@H](CCC(N)=O)C(=O)N[C@@H](CO)C(=O)N[C@@H](CC(C)C)C(=O)N[C@@]1(C)CCCC=CCCC[C@@](C)(C(=O)N[C@@H](CO)C(=O)N[C@@H](CC(=O)O)C(=O)N[C@@]2(C)CCCC=CCCC[C@@](C)(C(=O)N[C@H](C(N)=O)C(C)C)NC(=O)[C@H](Cc3c[nH]cn3)NC(=O)[C@H](CC(C)C)NC(=O)[C@H](CC(C)C)NC2=O)NC(=O)[C@H](CCCNC(=N)N)NC(=O)[C@H]([C@@H](C)CC)NC(=O)[C@H](Cc2ccccc2)NC1=O` [Peptide N500A] (Ac-EKIAQSL[S5]FIR[S5]SD[S5]LLH[S5]V-NH2; staple 8-12, 15-19), the helicity in data set [1] was 60%. In addition, the EC50 in data set [2] was 20.4 ± 2.4 µM. Consider `CC[C@H](C)[C@H](NC(=O)[C@H](Cc1ccccc1)NC(=O)[C@]1(C)CCCC=CCCC[C@](C)(NC(=O)[C@@H](NC(=O)[C@H](CCCCN)NC(=O)[C@H](CCC(=O)O)NC(C)=O)[C@@H](C)CC)C(=O)N[C@@H](CCC(N)=O)C(=O)N[C@@H](CO)C(=O)N[C@@H](CC(C)C)C(=O)N1)C(=O)N[C@@H](CCCNC(=N)N)C(=O)N[C@]1(C)CCCCCCC=CCCC[C@@](C)(C(=O)N[C@H](C(N)=O)C(C)C)NC(=O)[C@H](Cc2c[nH]cn2)NC(=O)[C@H](CC(C)C)NC(=O)[C@H](CC(C)C)NC(=O)[C@H](CCC(=O)O)NC(=O)[C@H](CC(=O)O)NC(=O)[C@H](CO)NC1=O` [Peptide 4bf] (Ac-EKI[S5]QSL[S5]FIR[R8]SDELLH[S5]V-NH2; staple 4-8, 12-19), for which, in data set [1], the helicity was 88.9%.

A word on the EC50: it is the concentration that produces a half-maximal response.
